According to patent US7267959B2, “Drug target within the sulfonylurea receptor” (priority 2001, dated 2007):

How the values were obtained:
[1] = target: T1, KATP channel (SUR1/KATP complex) in insulinoma HIT cells (Cricetus cricetus, UniProt Q09427); assay: KATP whole-cell patch-clamp currents in insulinoma HIT cells; type: cell-based
T1 construct: in HIT cells on the endogenous KATP whole-cell currents; endogenous in cells; host or cells: insulinoma HIT cells
Experimental: Representative KATP whole-cell patch-clamp currents recorded from the control and syntaxin-1A overespressing HIT cells are shown in FIG. 6A. Cells were stimulated by voltage steps from −140 to 0 mV from a holding potential of −50 mV. […] All currents were recorded 15 min after the formation of the whole-cell configuration when a cell interior exchanged with the pipette solution containing low (0.3 mM) ATP concentration. […] An asterisk indicates the first minutes of recording after obtaining the whole-cell configuration. Pipette solution contains 3 mM MgADP and only 0.3 mM ATP. […] Currents were measured at −120 mV, and normalized to the maximal current (Imax).

[2] = test system: NBF-1 and NBF-2 of SUR-1; assay: GST pull-down binding of Syn-1A or SNAP-25 with GST-NBF-1 / GST-NBF-2 of SUR-1, Western blot; settings: 375 pmol protein each, 4° C., 2 hours, glutathione beads
Experimental: (§1) GST (control) or GST-NBF-1 or GST-NBF-2 (375 pmol protein)of SUR-1 or SUR-2A, bound to glutathione beads, was incubated with Syn-1A or SNAP-25 (375 pmol protein) in 25 mM Hepes (pH 7.4) with 50 mM NaCl, 0.1% gelatin, 0.1% Triton X-100, 0.1% BSA and 0.2% β-mercaptoethanol at 4° C. for 2 hours. Following washing the beads three times with 20 mM Hepes(pH 7.4) with 150 mM KoAc, 1 mM EDTA, 1 mM MgCl2, 5% glycerol and 0.1% Triton X-100, the samples were subjected to 15% SDS-PAGE, transferred to nitrocellulose membrane and probed with antibody against Syn-1A (1:2000) or SNAP-25 (1:1000).

[3] = test system: NBF-1 and NBF-2 of SUR-2A; assay: GST pull-down binding of Syn-1A or SNAP-25 with GST-NBF-1 / GST-NBF-2 of SUR-2A, Western blot; settings: 375 pmol protein each, 4° C., 2 hours, glutathione beads
Experimental: as §1

[4] = target: T2, KATP channel in rat pancreatic beta cells (Rattus norvegicus, UniProt Q09429); assay: KATP whole-cell patch-clamp currents in freshly isolated rat pancreatic beta cells; type: cell-based
T2 construct: recorded from the freshly isolated rat pancreatic beta cells; endogenous in cells; host or cells: freshly isolated rat pancreatic beta cells
T2 sequence (Q09429 whole entry): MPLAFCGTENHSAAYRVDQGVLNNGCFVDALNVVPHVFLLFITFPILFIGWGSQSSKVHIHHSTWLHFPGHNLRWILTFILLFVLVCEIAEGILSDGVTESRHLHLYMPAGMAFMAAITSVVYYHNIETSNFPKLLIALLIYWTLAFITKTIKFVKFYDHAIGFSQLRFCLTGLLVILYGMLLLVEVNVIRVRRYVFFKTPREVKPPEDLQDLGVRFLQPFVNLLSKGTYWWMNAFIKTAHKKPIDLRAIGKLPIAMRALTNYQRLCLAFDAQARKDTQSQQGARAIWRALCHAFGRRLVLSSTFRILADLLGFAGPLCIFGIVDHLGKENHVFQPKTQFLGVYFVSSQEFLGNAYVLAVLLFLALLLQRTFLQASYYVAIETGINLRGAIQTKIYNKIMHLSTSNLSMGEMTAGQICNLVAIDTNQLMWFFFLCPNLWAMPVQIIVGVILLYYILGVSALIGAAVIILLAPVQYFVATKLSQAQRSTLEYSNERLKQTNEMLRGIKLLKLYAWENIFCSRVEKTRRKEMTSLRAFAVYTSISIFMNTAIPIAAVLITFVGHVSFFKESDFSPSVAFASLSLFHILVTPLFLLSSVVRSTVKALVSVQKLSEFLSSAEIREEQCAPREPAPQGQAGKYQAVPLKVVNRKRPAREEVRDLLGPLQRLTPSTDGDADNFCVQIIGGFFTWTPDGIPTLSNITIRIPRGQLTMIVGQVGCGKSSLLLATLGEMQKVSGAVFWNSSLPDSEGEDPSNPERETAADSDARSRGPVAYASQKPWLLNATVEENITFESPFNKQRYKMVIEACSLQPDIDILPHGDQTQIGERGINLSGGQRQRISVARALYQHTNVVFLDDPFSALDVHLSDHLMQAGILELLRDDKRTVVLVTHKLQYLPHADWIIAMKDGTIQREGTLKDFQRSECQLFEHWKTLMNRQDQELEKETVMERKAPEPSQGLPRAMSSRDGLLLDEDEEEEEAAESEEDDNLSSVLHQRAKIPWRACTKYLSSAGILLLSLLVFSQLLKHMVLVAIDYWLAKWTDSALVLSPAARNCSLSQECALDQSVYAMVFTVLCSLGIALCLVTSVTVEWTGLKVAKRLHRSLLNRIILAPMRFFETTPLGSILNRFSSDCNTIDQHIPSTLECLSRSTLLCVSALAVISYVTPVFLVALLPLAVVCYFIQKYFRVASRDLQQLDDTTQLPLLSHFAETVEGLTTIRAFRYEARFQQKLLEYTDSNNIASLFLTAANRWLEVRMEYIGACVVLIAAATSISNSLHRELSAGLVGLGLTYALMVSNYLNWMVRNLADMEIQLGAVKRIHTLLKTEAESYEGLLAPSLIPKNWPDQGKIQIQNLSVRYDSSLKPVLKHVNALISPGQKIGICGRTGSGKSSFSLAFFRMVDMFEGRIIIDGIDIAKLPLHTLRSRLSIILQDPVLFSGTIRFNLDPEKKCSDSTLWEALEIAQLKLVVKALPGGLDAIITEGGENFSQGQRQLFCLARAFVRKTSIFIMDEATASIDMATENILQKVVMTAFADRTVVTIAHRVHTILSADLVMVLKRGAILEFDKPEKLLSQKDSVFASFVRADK
T2 sequence (P70673 whole entry partner): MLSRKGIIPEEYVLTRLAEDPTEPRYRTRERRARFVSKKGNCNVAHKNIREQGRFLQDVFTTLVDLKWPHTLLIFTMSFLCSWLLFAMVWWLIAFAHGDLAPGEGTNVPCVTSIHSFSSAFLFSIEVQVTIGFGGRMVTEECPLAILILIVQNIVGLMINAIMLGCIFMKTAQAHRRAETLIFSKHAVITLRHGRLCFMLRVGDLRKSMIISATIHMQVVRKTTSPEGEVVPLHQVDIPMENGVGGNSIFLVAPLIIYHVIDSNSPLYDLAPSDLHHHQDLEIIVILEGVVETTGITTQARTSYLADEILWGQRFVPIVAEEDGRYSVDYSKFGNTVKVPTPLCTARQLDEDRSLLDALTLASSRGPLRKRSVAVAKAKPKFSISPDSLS
Experimental: Representative KATP whole-cell patch-clamp currents recorded from the freshly isolated rat pancreatic beta cells in the absence (control) and presence of recombinant syntaxin-1A protein are shown in FIG. 7A. Cells were stimulated by voltage steps from −140 to −20 mV (or 0 mV) from a holding potential of −50 mV. […] Recombinant syntaxin-1A (10^−3 M) was dialyzed into the cell interior through the patch pipette. […] All currents were recorded 15 min after the formation of the whole-cell configuration when a cell interior exchanged with the pipette solution containing low (0.3 mM) ATP concentration that under control conditions opens the KATP channel.

T1 sequence (Q09427 whole entry, one chain of several): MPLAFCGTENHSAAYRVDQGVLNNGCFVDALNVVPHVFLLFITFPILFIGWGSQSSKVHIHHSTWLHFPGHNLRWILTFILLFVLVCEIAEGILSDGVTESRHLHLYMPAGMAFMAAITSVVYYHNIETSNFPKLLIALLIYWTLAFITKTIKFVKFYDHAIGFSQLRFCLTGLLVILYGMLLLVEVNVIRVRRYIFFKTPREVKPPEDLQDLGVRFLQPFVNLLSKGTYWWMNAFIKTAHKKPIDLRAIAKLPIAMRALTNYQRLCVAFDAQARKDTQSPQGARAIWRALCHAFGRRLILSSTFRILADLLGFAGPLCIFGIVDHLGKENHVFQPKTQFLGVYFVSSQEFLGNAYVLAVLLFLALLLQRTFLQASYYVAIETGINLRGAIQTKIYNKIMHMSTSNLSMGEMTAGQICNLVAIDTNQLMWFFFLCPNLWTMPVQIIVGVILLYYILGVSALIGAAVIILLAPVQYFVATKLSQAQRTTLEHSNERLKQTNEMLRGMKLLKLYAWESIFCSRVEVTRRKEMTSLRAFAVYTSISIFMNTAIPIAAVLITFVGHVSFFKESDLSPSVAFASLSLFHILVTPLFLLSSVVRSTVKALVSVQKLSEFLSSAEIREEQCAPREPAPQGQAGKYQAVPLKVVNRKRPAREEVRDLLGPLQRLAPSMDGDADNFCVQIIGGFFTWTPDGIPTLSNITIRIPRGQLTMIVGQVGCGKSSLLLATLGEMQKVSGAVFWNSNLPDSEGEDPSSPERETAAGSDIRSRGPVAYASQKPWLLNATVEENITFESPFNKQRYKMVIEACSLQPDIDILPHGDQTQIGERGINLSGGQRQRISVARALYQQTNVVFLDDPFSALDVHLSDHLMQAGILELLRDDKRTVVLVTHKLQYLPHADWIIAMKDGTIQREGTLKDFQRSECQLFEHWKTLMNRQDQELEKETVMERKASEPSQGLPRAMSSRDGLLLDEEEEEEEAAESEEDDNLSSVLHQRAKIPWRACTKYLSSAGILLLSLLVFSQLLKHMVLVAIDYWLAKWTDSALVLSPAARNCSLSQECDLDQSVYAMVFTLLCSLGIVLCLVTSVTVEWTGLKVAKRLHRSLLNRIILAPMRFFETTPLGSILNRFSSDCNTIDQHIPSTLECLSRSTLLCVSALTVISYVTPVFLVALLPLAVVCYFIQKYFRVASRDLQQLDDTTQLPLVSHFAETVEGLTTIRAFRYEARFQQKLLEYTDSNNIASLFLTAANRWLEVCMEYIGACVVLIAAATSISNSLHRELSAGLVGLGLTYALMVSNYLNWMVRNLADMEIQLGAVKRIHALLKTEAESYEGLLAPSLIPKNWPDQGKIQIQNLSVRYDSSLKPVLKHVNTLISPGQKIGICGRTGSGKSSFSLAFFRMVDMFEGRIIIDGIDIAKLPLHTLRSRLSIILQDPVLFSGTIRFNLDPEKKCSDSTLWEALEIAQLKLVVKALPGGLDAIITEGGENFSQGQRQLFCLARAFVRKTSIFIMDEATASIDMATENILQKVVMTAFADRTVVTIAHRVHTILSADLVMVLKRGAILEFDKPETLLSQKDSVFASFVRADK

Substance | reversal of syntaxin-1A inhibited KATP current at t=15 min compared with t=0 min ([1]; MgADP 3 mM in pipette, 0.3 mM ATP, syntaxin-1A overexpressing HIT cells, measured at −120 mV) | binding (pull down) to NBF-1 and NBF-2 of SUR1 [2] | binding (pull down) to NBF-1 and NBF-2 of SUR2A [3] | KATP whole-cell currents versus control cells ([1]; HIT cells transfected with (overexpressing) syntaxin-1A, pipette 0.3 mM ATP, 15 min) | KATP whole-cell current at t=15 min relative to t=0 min ([1]; syntaxin-1A overexpressing HIT cells (>3 fold by Western), pipette 0.3 mM ATP, measured at −140 mV) | KATP whole-cell currents versus control beta cells ([4]; recombinant syntaxin-1A 10^−3 M dialyzed through patch pipette, 0.3 mM ATP, 15 min) | inhibitory effect on mean KATP whole cell-currents (channel activity) ([4]; recombinant syntaxin-1A, 0.3 mM ATP in pipette, measured at −120 mV, recorded for 15 minutes)
MgADP [reference compound] | 46% |  |  |  |  |  | 
syntaxin-1A: endogenous SNARE superfamily protein; recombinant rat syntaxin-1A (SEQ ID NO: 1) or overexpressed in cells |  | directly ‘pulled’ down | directly ‘pulled’ down | reduced compared with the control cells | remained unchanged | reduced compared with the control beta cells | strongly inhibits
